Experimental data published in paper PMC2637981, “High-Level Production, Solubilization and Purification of Synthetic Human GPCR Chemokine Receptors CCR5, CCR3, CXCR4 and CX3CR1” (PLoS ONE, 2009).

B1: Trx-hCX3CR1 (human chemokine receptor CX3CR1 with N-terminal HP-thioredoxin, expressed from pBAD-hCX3CR1) (receptor, UniProt P49238 1-355, looked up)
chain: MDQFPESVTENFEYDDLAEACYIGDIVVFGTVFLSIFYSVIFAIGLVGNLLVVFALTNSKKPKSVTDIYLLNLALSDLLFVATLPFWTHYLINEKGLHNAMCKFTTAFFFIGFFGSIFFITVISIDRYLAIVLAANSMNNRTVQHGVTISLGVWAAAILVAAPQFMFTKQKENECLGDYPEVLQEIWPVLRNVETNFLGFLLPLLIMSYCYFRIIQTLFSCKNHKKAKAIKLILLVVIVFFLFWTPYNVMIFLETLKLYDFFPSCDMRKDLRLALSVTETVAFSHCCLNPLIYAFAGEKFRRYLYHLYGKCLAVLCGRSVHVDFSSSESQRSRHGSVLSSNFTYHTSDGDALLLL
notes: synthetic full-length gene of 1,065 bp; not shown: HP-thioredoxin (E. coli thioredoxin with E32H and Q64H), N-terminal, kept; His6, C-terminal, kept
B2: Trx-hCCR3 (human chemokine receptor CCR3 with N-terminal HP-thioredoxin, expressed from pBAD-hCCR3) (receptor, UniProt P51677 1-355, looked up)
chain: MTTSLDTVETFGTTSYYDDVGLLCEKADTRALMAQFVPPLYSLVFTVGLLGNVVVVMILIKYRRLRIMTNIYLLNLAISDLLFLVTLPFWIHYVRGHNWVFGHGMCKLLSGFYHTGLYSEIFFIILLTIDRYLAIVHAVFALRARTVTFGVITSIVTWGLAVLAALPEFIFYETEELFEETLCSALYPEDTVYSWRHFHTLRMTIFCLVLPLLVMAICYTGIIKTLLRCPSKKKYKAIRLIFVIMAVFFIFWTPYNVAILLSSYQSILFGNDCERSKHLDLVMLVTEVIAYSHCCMNPVIYAFVGERFRKYLRHFFHRHLLMHLGRYIPFLPSEKLERTSSVSPSTAEPELSIVF
notes: as for B1

Molecular target: the molecule itself
Experiment: SEC; Ni2+ column eluate concentrated and run on Superdex 200 10/300 GL in Buffer C (1x PBS, 0.02% FC14); fractions tested by SDS-PAGE and Western blot; monomer, dimer and higher oligomer resolved

Protein | binding result
B1 | binds
B2 | binds
